In paper PMC3832671, “Two Homologous EF-G Proteins from Pseudomonas aeruginosa Exhibit Distinct Functions” (PLoS ONE, 2013):

Assays:
[1] = tested on: T1, Nc1nc2c(ncn2[C@@H]2O[C@H](COP(=O)(O)OP(=O)(O)OP(=O)(O)O)[C@@H](O)[C@H]2O)c(=O)[nH]1; experiment: ribosome-dependent GTPase, colorimetric Pi release, Lineweaver-Burk; format: biochemical, Pseudomonas aeruginosa; settings: P. aeruginosa ribosomes 0.4 μM, EF-G1B 0.3 μM, 10 mM MgCl2, 70 mM NH4Cl, pH 7.5, 37 °C, kcat is kcat^obs, text b30 prints 71 μM
T1 construct: full length (702 residues) with N-terminal 6xHis tag from pET-28b(+), NheI/HindIII; expressed in E. coli Rosetta 2(DE3); about 77 kDa
Excerpt: ribosome-dependent GTPase, colorimetric Pi release, Lineweaver-Burk on EF-G1B

[2] = tested on: T2, Nc1nc2c(ncn2[C@@H]2O[C@H](COP(=O)(O)OP(=O)(O)OP(=O)(O)O)[C@@H](O)[C@H]2O)c(=O)[nH]1; experiment: as above; format: biochemical, Pseudomonas aeruginosa; settings: P. aeruginosa ribosomes 0.4 μM, EF-G1A 1.0 μM, 10 mM MgCl2, 70 mM NH4Cl, pH 7.5, kcat is kcat^obs
T2 construct: full length (706 residues) with N-terminal 6xHis tag from pET-28b(+), NheI/HindIII; expressed in E. coli Rosetta 2(DE3); about 77 kDa
Excerpt: ribosome-dependent GTPase, colorimetric Pi release, Lineweaver-Burk on EF-G1A

## EF-G1B (Pseudomonas aeruginosa PAO1)
[1]
  Km: 70 µM
  kcat: 0.2 s⁻¹
  kcat/Km: 3000 M⁻¹ s⁻¹

## EF-G1A (Pseudomonas aeruginosa PAO1)
[2]
  Km: 85 µM
  kcat: 0.04 s⁻¹
  kcat/Km: 500 M⁻¹ s⁻¹
